Test: yeast display, Sf9 membrane polyspecificity reagent, FACS + sequencing; frameworks hold sequencing errors
Procedure, shortened: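 In a synthetic yeast display library (Saccharomyces cerevisiae BJ5465), nanobody expression was induced with galactose for 36–48 hours. FACS gates were set low and high (top ~1%) using anti-HA fluorescence for expression and streptavidin fluorescence for binding of the Sf9 membrane reagent. Each polyreactivity label is drawn from the gate of origin.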

| Sequence | polyreactivity (PSR sort gate) |
| --- | --- |
| QVQLVESGGGLVQAGGSLRLSCAASGFTLRSNVMGWSRQAPGKERELVAGISQSGGRTFYADSVKGRFTISRDNAKNTVYLQMNSLKPEDTAVYYCAARRYAVEGSKNYYWGQGTQVTVSS | low polyreactivity |
| QVQLVESGGGLVQAGGSLRLSCAASGFTLRTYAMGWYRQAPGKERELVAAITVSGGTYYADSVKGRFTISRDNAKYTVYLQMNSLKPEDTAVYYCTAKRFGTGFDYWGQGTQVTVSS | low polyreactivity |
| QVQLVESGGGLVQAGGSLRLSCAASGFTLRYYAMGWSRQAPVKERELVATIKRSGASTYYADSVKGRFTISRDNSKNTVYLQMNSLKPEDTAVYYCNTATSRAYRYDYWGQGTQVTVSS | high polyreactivity |
| QVQLVESGGGLVQAGGSLRLSCAASGFTLSAYAMGLYRQAPGKERELVAGNSYTGGRTYYADSVKGRFTISRDNAKNTFYLQLISLKPEDTAVDYCAAALYSDVDAVATYGYYWGEGTQVTVSS | low polyreactivity |
| QVQLVESGGGLVQAGGSLRLSCAASGFTLSDYAMGGYRKAAGTERELVAGISSGGSTNYADSVKGRFTISRDNAKNTVYLQMNSLKPEDTAVYYCATRGTFQSHIRSGYWGQGTQVTVSS | high polyreactivity |
| QVQLVESGGGLVQAGGSLRLSCAASGFTLSRYAMGWYRQAPGKERELVAAIRWSGGSTYYADSVKGRFTISRDNEKNTVYLQMNSLKPEDTAVYYCATRRSGYYSFYYWGQGTQVTGSS | high polyreactivity |
| QVQLVESGGGLVQAGGSLRLSCAASGFTLTGNAMGWYRQAPGKERELVAAISRNGGSTFYADSVKGRFTISRDNAKNTVYLQMNSLKPEDTAVYYCNASRYRHSAYKYDSWGQGTQVTVSS | high polyreactivity |
| QVQLVESGGGLVQAGGSLRLSCAASGFTLTSYAMGWYRQAPGKERELVAGISRGGITYYADSVKGRFTISRDNAKNTVYLQMNSLKPEDTAVYYCNARRTRRWPTTPEFTNFGYWGQGTQVTVSS | high polyreactivity |
| QVQLVESGGGLVQAGGSLRLSCAASGFTLVKYVMGWYIQAPGKEREFVATIRRRGGNTYYADSVKGRFTISRDNAKNTVYLQMNSLKPEDTAVYYCAAKKRSDLRTGDMEYWGQGTQVTVSS | high polyreactivity |
| QVQLVESGGGLVQAGGSLRLSCAASGFTLWGYAMGWYRQAPGKERELVATISWSGGGTNYADSVKGRFTISRDNAKNTVYLQMNSLKPEDTAVYYCAAGQGSRNQYYYWGQGTQVTVSS | high polyreactivity |
| QVQLVESGGGLVQAGGSLRLSCAASGFTLYAYVMGWYRQAPGKERDLVAAISRSGGSTYYADSVKGRFTISRDNAKNTVYLQMNSLKPEDTAVYYCAAQYKRYHRLYGYWGQGTQVTVSS | high polyreactivity |
| QVQLVESGGGLVQAGGSLRLSCAASGFTLYGYAMGWYRQAPGKERELVAGIRYSGGRTYYADSVKGRFTISRDNAKNTVYLEMNSLKPEDTAVYYCAAVFKLSSSFYYWGQGTQVTVSS | high polyreactivity |
| QVQLVESGGGLVQAGGSLRLSCAASGFTLYPYAMGRYRKAPGKERELVAAISSSSGSTYYADSVKGRFTISRDNAKNTVYVQMNSLKPDDTAVYYCARDSGYYWYYRYGYWGQGTQVTVSS | high polyreactivity |
| QVQLVESGGGLVQAGGSLRLSCAASGFTLYRYAMGWYRQAPAKERELVAANNSRGGSTYYADSVKGRFTISRDNAKITVYLQMISLKPDDTAVYYCNARRIRGGVRLTSPFYYWGQGTHVTVSS | high polyreactivity |
| QVQLVESGGGLVQAGGSLRLSCAASGFTLYRYAMVWYRQAPGKERELVAAISRGSSTNYADSVKGRFTISRDNAKNTVYLQMNSLKPEDTAVYYCAARIVTLGSSRARSFTEYYWGQGTQVTVSS | high polyreactivity |
| QVQLVESGGGLVQAGGSLRLSCAASGFTLYRYVMGWYRQAPGKERELVAAITWSGGSTYYADSVKGRFTISRDNAKNTVYLQMNSLKPEDTAVYYCAARLNVRGWGQGTQVTVSS | low polyreactivity |
| QVQLVESGGGLVQAGGSLRLSCAASGFTLYSYAMGWYRQAPGKERELVARISRSGGRTYYADSVKGRFTISRDNAKNTVYLQMNSLKPEDTAVYYGNARSLYYSYDYWGQGTQVTVSS | high polyreactivity |
| QVQLVESGGGLVQAGGSLRLSCAASGFTLYYYAMGWYRQAPGKERELVAAIRSGGRTYYADSVKGRFTISRDNAKNTVYLQMNSLKPEDTAVYYCAARYRVYRGSRGITDYGYWGQGTQVTVSS | high polyreactivity |
| QVQLVESGGGLVQAGGSLRLSCAASGFTSAVYAMGWYRQAPGKERELVAAIRRGGSTNYADSVKGRFTISRDNAKNTVYLQMNSLKPEDTAVYYCAAAGRGWFGYWGQGTQVTVSS | high polyreactivity |
| QVQLVESGGGLVQAGGSLRLSCAASGFTSAYNAMGWYRQAPGKERELVATISFRGSSTYYADSVKGRFTISRDNAKNTVYLQMNSQKPEDTAVYYCAADPYDARAVSEPVFFGHYDFWGQGTQVTVSS | low polyreactivity |
| QVQLVESGGGLVQAGGSLRLSCAASGFTSGYNAMGWYRQAPGKERELVATITRGTRTYYADSVKGRFTISRDNAKNTVYLQMNSLKPEDTAVYYCNARVYYKTYGGYYSWGQGTQVTVSS | high polyreactivity |
| QVQLVESGGGLVQAGGSLRLSCAASGFTSNEYAMGWYRPAAGTERELVAAISKSGGRTYYADSVKGRFTISRDNAKNTVYLQMNSLKPEDTAVYYCGKRRNTTYYAGGFDYWGQGTKVTVSS | high polyreactivity |

| Sequence | polyreactivity (PSR sort gate) |
| --- | --- |
| QVQLVESGGGLVQAGGSLRLSCAASGFTSWDIDMGCYRQAPGIEREMVAAITGGGTTNYADSVKGRFTISRDNAKNTVYLQMNSLKPEDTAVYYCAAKPWWYSGYDYWGQGTQVTVSS | low polyreactivity |
| QVQLVESGGGLVQAGGSLRLSCAASGFTSYLYTMGWYRQAPGKERELVAAISNSGGNTYYADSVKGRFTISRDNAKNTVYLQMNSLKPEDTAVYYCAARLFAAKYRYGYWGQGTQVTVSS | high polyreactivity |
| QVQLVESGGGLVQAGGSLRLSCAASGFTSYTNAMGWYRQAPGKERELVAAIDVSGSDTYYADSVKGRFTISRDNAKNTVYLQMNSLKPEDTAVYYCAAEYYSYYYQGYDYWGQGTQVTVSS | high polyreactivity |
| QVQLVESGGGLVQAGGSLRLSCAASGFTVAIYAMGWYRHAPGKERELVAAINRCGGSTYYADSVKGRFTISRDNAKNSVYLQMNSLKTEDTAVYYCNKRYRVWFDYWGQGTQVTVSS | high polyreactivity |
| QVQLVESGGGLVQAGGSLRLSCAASGFTVDLYAMGWYRQAPGKERELVAAITSSGGSTYYADSVKGRFTISRDNAKNTVYLQMNSLTPEDTAVYYCAVAYSSHTSYYSWGQGTQVTVSS | low polyreactivity |
| QVQLVESGGGLVQAGGSLRLSCAASGFTVHDYAMGWYRQAPGKERELVAAISFSGGRTYYADSVKGRFSISRDNAKNTVYLQMNSLKPEDTAVYYCNAKGQRIKRWRGYWGQGTQVTVSS | high polyreactivity |
| QVQLVESGGGLVQAGGSLRLSCAASGFTVIDYAMGWYSQAPGKERELVAAITTGTITYYADSVTGRFTISRDNAKNTVYLQMNSLKPEDTAVYYCNADWLTLATTMNYWGQGTQVTVSS | low polyreactivity |
| QVQLVESGGGLVQAGGSLRLSCAASGFTVSAYALGWYRQAPGKERELVAAISTRGGSTRYADSVKGRFTISRDNAKNTVYLQMNSLKPEDTAVYYCAADTRSFYRYDYWGQGTQVTVSS | high polyreactivity |
| QVQLVESGGGLVQAGGSLRLSCAASGFTYDSYAMRWYRQAPGKERELVAAITRRGGSTYYADSVKGRFTISRDNAKNTVYLQMNSLKPEDTAVYYCATLRLRSLGQRNYWGQGTQVTVSS | high polyreactivity |
| QVQLVESGGGLVQAGGSLRLSCAASGFTYGRYAMGWYRQAPRKERELVAAISFSGGRTYYADSVKGRFTISRDNAKNTVYLQMKSLKPEDTAVYYCAARRRQEHVGRSSYARYDYWGQGTQVTVSA | high polyreactivity |
| QVQLVESGGGLVQAGGSLRLSCAASGFTYHVYAMGWYRQAPGKERELVAAISTGDDTTFYADSVKGRFTISRDNAKNTVYLQMNSLKPEDSAVYYCAAEYQVEYYYTTNFLTTYDYWGQGTQVTVSS | low polyreactivity |
| QVQLVESGGGLVQAGGSLRLSCAASGFTYKYYAMGWYRQAPGKERELVAAISGSGGRTYYADSVKGRFTISRDNAKNTVYLQMNSLKPEDTAVYYCAAVYLVTRGARYDYWGQGTQVTVSS | high polyreactivity |
| QVQLVESGGGLVQAGGSLRLSCAASGFTYPANAMGWYRQAPGKERELVASISGSGGRTYYADSVKGRFTISRDNAQNTVYLQMNSLKPEDTAVYYCNRYSYWYRGEYGYWGQGTQVTVSS | high polyreactivity |
| QVQLVESGGGLVQAGGSLRLSCAASGFTYRVNAMGWYRQATGKERELVAAITVSDGRTYYADSVKGRFTISRDNAKNTVYLQMNSLKPEDTAVYYCAADYKGAFTTDWSSEYEYWGQGTQVTVSS | low polyreactivity |
| QVQLVESGGGLVQAGGSLRLSCAASGFTYSKNAMGWDRQAPAKERELVAVITRRGGSTYYADSVKGRFTISRDNAKNTVYLQMNSLKPEDTAVYYCAAASFTRRDLDYWGQGTQVTVSS | high polyreactivity |
| QVQLVESGGGLVQAGGSLRLSCAASGFTYSLYDMGWYRQAPGKERELVAAISSDGSTNYADSVKGRFTISRDNAKNTVYLQMNSLKPEDTAVYYCAADETFLSYWLNYWGQGTQVTVSS | low polyreactivity |
| QVQLVESGGGLVQAGGSLRLSCAASGFYNTMGWYRQAPRKERELVAAISTGGMTNYADSVKGRFTISRDNAKNTVYLQMNSLKPVDTAVYYCAADGYSTVYSTYDYWGQGTQVTVSS | low polyreactivity |
| QVQLVESGGGLVQAGGSLRLSCAASGGIFADYAMGWYRQAPGKERELVAAISSGGNTNYADSVKGRFTISRDNAKNTVYLQMNSLKPEDTAVYYCNRDTSYYRYVYYEGNDYWGQGTQVTVSS | low polyreactivity |
| QVQLVESGGGLVQAGGSLRLSCAASGGIFAYYAMGWYRQAPGKERELVAAITSRGGRTYYADSVKGRFTISRDNAKNTVYFQMNSLKPEDTEVYYCNAERFWPWDYDYWGQGTQVTVSS | high polyreactivity |
| QVQLVESGGGLVQAGGSLRLSCAASGGIFDIYAMGWYRQAPGKERELVAANRGSGGRTYYADSVKGRFTISRDNAKNTVYLQMNSLKPEDTAVYYCAARPSIVTGLRYGYWGQGTQVTVSS | high polyreactivity |
| QVQLVESGGGLVQAGGSLRLSCAASGGIFDPYAMGWYRQAPGKERELVAAITNSGGSTYYADSVKGRFTISRDNAKNTVYLQMNSLKPEDTAVYYCAAEGLYVGYDYWGQGTQVTVSS | low polyreactivity |

From the nanobody polyreactivity screen of Harvey et al. (2022)
